Data reported in PMC2651776 (Nucleic Acids Research, 2009).

Experiments:
MepR [1] = molecular target: T1, MepR (Staphylococcus aureus, UniProt Q5Y812); format: binding
T1 sequence (Q5Y812 1-139): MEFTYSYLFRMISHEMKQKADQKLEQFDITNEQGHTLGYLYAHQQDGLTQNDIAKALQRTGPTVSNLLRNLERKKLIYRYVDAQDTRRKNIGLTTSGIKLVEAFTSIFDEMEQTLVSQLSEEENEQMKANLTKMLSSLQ

MepR [2] = molecular target: MepR (Staphylococcus aureus, UniProt A0A0H3JPT9 1-139); assay: fluorescence polarization
SEC = molecular target: the molecule itself; assay: SEC

N=C(N)c1ccc(-c2cc3ccc(C(=N)N)cc3[nH]2)cc1 [DAPI, 4′,6-diamidino-2-phenylindole]
Kd (MepR [1]): 4500 nM

CC[n+]1c(-c2ccccc2)c2cc(N)ccc2c2ccc(N)cc21 [ethidium]
Kd (MepR [1]): 2600 nM

CC/N=c1\cc2oc3cc(NCC)c(C)cc3c(-c3ccccc3C(=O)OCC)c-2cc1C [rhodamine 6G]
Kd (MepR [1]): 62600 nM

B1: mepA 44 bp full site (dsDNA)
DNA 1: TTATAGTTAGATATCTAATTGTTAGTAAGCTAATTATTGGAAAA
DNA 2: TTTTCCAATAATTAGCTTACTAACAATTAGATATCTAACTATAA
Kd (MepR [2]): 6.3 nM

B2: mepA 22 bp (3'-truncated) (dsDNA)
DNA 1: TTATAGTTAGATATCTAATTGT
DNA 2: ACAATTAGATATCTAACTATAA
Kd (MepR [2]): 46.4 nM

B3: MepR (natural protein, Staphylococcus aureus)
chain: T1 sequence (Q5Y812 1-139)
stoichiometry N (SEC): 2

B4: mepA 26 bp (3'-truncated) (dsDNA)
DNA 1: TTATAGTTAGATATCTAATTGTTAGT
DNA 2: ACTAACAATTAGATATCTAACTATAA
Kd (MepR [2]): 15.3 nM

B5: mepR 26 bp site (dsDNA)
DNA 1: TATTTAGTTAGACATCTAACGAATGG
DNA 2: CCATTCGTTAGATGTCTAACTAAATA
Kd (MepR [2]): 24.3 nM
